Assay results published in patent US20180280528A1, “ANTIFOLATE CONJUGATES FOR TREATING INFLAMMATION” (ENDOCYTE, INC., priority 2015, published 2018).

Legend:
Pharmacokinetics in rats = conditions: female, Lewis, rat, in vivo, sc, 500 nmol/kg; for AUC(0-inf): AUCinf
Method: Each rat was used for collection of blood samples for a maximum of 4 time points. […] The samples were centrifuged for 3 minutes at 2000×g (Eppendorf 5417R centrifuge) to obtain plasma. The plasma samples were stored at −80° C. until LC-MS/MS analysis.
(§1) LC-MS/MS analysis utilized a Waters Acquity UPLC system paired with a Waters Quattro Premier XE tandem quadrupole mass spectrometer operating in ESI positive mode. Prior to injection, K3EDTA plasma samples were processed using a Phenomenex Strata X-A solid phase extraction (SPE) plate. All plasma samples were fortified with N-Maleoyl-β-alanine, mannitol, and acetic acid. Briefly, 50 μL of plasma diluted with 50 μL of internal standard solution and 500 μL 1000:4:1.5 water:ammonium hydroxide:formic acid was mixed and loaded onto a preconditioned Strata X-A SPE plate. Aqueous and organic washes were then applied followed by elution of all analytes with 300:200:7.5 methanol:water:formic acid. The samples were evaporated until approximately 30 μL remained in all wells and 30 μL of 9:1 water:ammonium hydroxide was then added. Finally, the plate was sealed, mixed, and centrifuged prior to transfer to the 2-8° C. Acquity autosampler. Note: During EC1669 analysis, EC0470 was converted to a hydrazone product for bioanalysis. Acetone (500 μL) was added to all samples after the first evaporation step followed by sealing all wells and heating at 50° C. for one hour. After this step, the acetone was evaporated and the extraction completed as described above.
(§2) A 10 μL sample volume was applied to the Waters BEH Shield RP18 100×2.1 mm, […] UPLC column operating at a flow rate of 0.4 mL/min while being maintained at 45° C. A gradient between mobile phase A (1000:4:1.5 water:ammonium hydroxide:formic acid) and mobile phase B (acetonitrile) was used to separate the analytes. The gradient was held at 2% B for the first 30 seconds of the chromatographic run followed by increasing to 20% B by 2.5 minutes. A rapid gradient from 60-90% B is then used to clean the column prior to equilibration at 2% B to complete the 4 minute run cycle.
(§3) For EC1669 MS/MS analysis, EC1669 and its known major metabolites, EC1886 and […], were optimized and monitored. […] In all cases, internal standard response was used to generate response ratios for each analyte. When calibrated, data was regressed using MassLynx 4.1 software. The table below lists transitions for analytes and internal standards monitored for LC-MS/MS bioanalysis.

[1] = Plasma protein binding by ultrafiltration, dog plasma; format: in vitro ADME; conditions: 500 nM
Method: EC2319 and EC1669 plasma protein binding was evaluated by ultra filtration using VWR 30K MWCO modified PES filters. 250 μL of 500 nM EC2319 or EC1669 in K3EDTA plasma incubated at 37° C. was added to the upper filter vessel. 50 μL was immediately removed as the donor plasma sample and aliquoted into a clean 1.2 mL plate. […] An aliquot of […] plasma ultrafiltrate was then added to the 1.2 mL plate as the receiver sample. To each plasma sample, 50 μL of plasma ultrafiltrate was added, and each ultrafiltrate sample received 50 μL of plasma to mitigate matrix effects. N-Maleoyl-β-alanine, mannitol, and acetic acid were added at the end of each experiment to stabilize the samples prior to LC-MS/MS analysis.

[2] = Incubation with THP-1 FRβ cell lysates; format: in vitro ADME, human; conditions: THP-1 FRβ lysate, pH 4.5, 37° C., 2 hours
Method: (§4) To 100 μL AIA rat macrophage, RAW264.7 or THP-1 FRβ cell lysates (each containing 10 million cells/mL 0.1 M sodium acetate, Ph 4.5) was added 2 μL of a 50 μM solution of EC2319 or EC1669 (Endocyte, Inc.). The solutions were incubated at 37° C. in a heat block (VWR International, Radnor, Pa.) for 2 hours. The reaction was terminated by the addition of 5 µL of stabilizer solution and 100 μL of acetonitrile containing d5-aminopterin (Endocyte, Inc.). The rest of the workup is as described above.

Pharmacokinetics in dogs = conditions: beagle, dog, in vivo
Method: (§5) The samples were centrifuged under refrigeration for at least 10 minutes at 3000 rpm and the plasma generated stored at −20° C. until LC-MS/MS analysis.
as §5, §1, §2, §3

[3] = Incubation with RAW264.7 cell lysates; format: in vitro ADME, mouse; conditions: RAW264.7 lysate, pH 4.5, 37° C., 2 hours
Method: as §4

[4] = Release of aminopterin in human hepatic cytosol; format: in vitro ADME; conditions: 5% human liver cytosol, 1 hour; for pH dependence of aminopterin release from the conjugate: pH 4.5, 6.0, 7.4, 37° C.
Method: (§6) EC2319 and EC1669 were incubated in 5% rat, dog, and human hepatic cytosol at different pH's to look at release of aminopterin from these conjugates. Liver cytosols from male Sprague-Dawley rats (Lot No. 1110428), male beagle dogs (Lot no. 1310024), and male humans (Lot No. 0710493), all containing 10 mg/mL protein, were obtained from Xenotech LLC (Lenexa, Kans.). These were diluted 20× in either 0.5 M sodium acetate buffer, pH 4.5, 0.5 M sodium acetate buffer, 6.0, or 0.5 M potassium phosphate buffer, pH 7.4 in a final volume of 500 μL. Reactions were initiated by the addition of 1 μL of either EC2319 or EC1669 and the reaction mixtures incubated at 37° C. for 1 hour. At the end of the incubation, a 100 μL aliquot was withdrawn into a cluster tube and the reaction was terminated by the addition of 5 μL of stabilizer solution (containing 8.5 mg/ml N-Maleoyl-β-alanine, 20 mg/mL mannitol and 0.075% acetic acid) and 100 μL of acetonitrile containing d5-aminopterin. The tubes were vortexed and then centrifuged at 4000 rpm for 10 minutes (Eppendorf centrifuge 5810R). 150 μL of the supernatant was transferred to 96-well plates and the acetonitrile evaporated off under nitrogen at 35° C. for 5 minutes. The extract was diluted with 50 μL of mobile phase A. The plate was vortexed on a VX-2500 multi-tube vortexer (VWR International, Radnor, Pa.) and the extract analyzed by LC-MS/MS.

[5] = Release of aminopterin in rat hepatic cytosol; format: in vitro ADME; conditions: 5% rat liver cytosol, 1 hour; for pH dependence of aminopterin release from the conjugate: pH 4.5, 6.0, 7.4, 37° C.
Method: as §6

[6] = Release of aminopterin in dog hepatic cytosol; format: in vitro ADME; conditions: 5% dog liver cytosol, 1 hour; for pH dependence of aminopterin release from the conjugate: pH 4.5, 6.0, 7.4, 37° C.
Method: as §6

Compound `N=c1[nH]c(N)nc2ncc(CNc3ccc(C(=O)N[C@@H](CCC(=O)NNC(=O)OCCSSC[C@@H](NC(=O)[C@H](CCC(=O)NC[C@H](O)[C@@H](O)[C@H](O)[C@H](O)CO)NC(=O)[C@@H](CCC(=O)O)NC(=O)[C@H](CCC(=O)NC[C@H](O)[C@@H](O)[C@H](O)[C@H](O)CO)NC(=O)[C@@H](CCC(=O)O)NC(=O)[C@H](CCC(=O)NC[C@H](O)[C@@H](O)[C@H](O)[C@H](O)CO)NC(=O)CC[C@H](NC(=O)c4ccc(NCc5cnc6nc(N)[nH]c(=O)c6n5)cc4)C(=O)O)C(=O)O)C(=O)O)cc3)nc12` [EC1669, reference compound] has a Cmax (Pharmacokinetics in rats) of 472 nM, a Tmax (Pharmacokinetics in rats) of 30 min and a half-life (Pharmacokinetics in rats) of 27.8 min. The AUC(0-inf) (Pharmacokinetics in rats; rat plasma, EC1669 dosed SC 500 nmol/kg) was 0.86 µM·h, the AUC(0-t) (Pharmacokinetics in rats; AUClast, rat plasma, EC1669 dosed SC 500 nmol/kg) was 0.857 µM·h and the plasma protein binding [1] was “high plasma protein binding”. The aminopterin release [2] was “greater from EC1669 than from EC2319”, the AUC(0-t) (Pharmacokinetics in dogs; sc, 2.4 mg/kg) was 4.07 µM·h and the Cmax (Pharmacokinetics in dogs; sc, 2.4 mg/kg) was 1390 nM. The Tmax (Pharmacokinetics in dogs; sc, 2.4 mg/kg) was 71.4 min, the half-life (Pharmacokinetics in dogs; sc, 2.4 mg/kg) was 59.6 min and the aminopterin release [3] was “greater from EC1669 than from EC2319”. The “pH dependence of aminopterin release from the conjugate” value (“pH dependence of aminopterin release” for short) [4] was “highest at pH 4.5”, the “pH dependence of aminopterin release” value [5] was “broad pH specificity” and the “pH dependence of aminopterin release” value [6] was “highest at pH 4.5”.

With `COC(=O)[C@H](CSSC(C)(C)[C@H](NC(=O)[C@H](CCC(=O)NC[C@H](O)[C@@H](O)[C@H](O)[C@H](O)CO)NC(=O)[C@H](CCC(=O)O)NC(=O)[C@H](CCC(=O)NC[C@H](O)[C@@H](O)[C@H](O)[C@H](O)CO)NC(=O)[C@H](CCC(=O)O)NC(=O)[C@H](CCC(=O)NC[C@H](O)[C@@H](O)[C@H](O)[C@H](O)CO)NC(=O)CC[C@H](NC(=O)c1ccc(NCc2cnc3nc(N)[nH]c(=O)c3n2)cc1)C(=O)O)C(=O)O)NC(=O)CC[C@H](NC(=O)c1ccc(NCc2cnc3nc(N)nc(N)c3n2)cc1)C(=O)O` [EC2319] the AUC(0-inf) (Pharmacokinetics in rats; rat plasma, EC2319 dosed SC 500 nmol/kg) was 1.02 µM·h, the plasma protein binding [1] was “higher plasma protein binding than did EC1669” and the aminopterin release [2] was “aminopterin release was observed”. For the same compound, the bioavailability (Pharmacokinetics in dogs; male, 2.43 mg/kg) was 133%, the Tmax (Pharmacokinetics in dogs; male, iv, 1 mg/kg) was 1.8 min and the Vd (Pharmacokinetics in dogs; male, iv, 1 mg/kg) was 0.41 L/kg. For the same compound, the clearance (Pharmacokinetics in dogs; male, iv, 1 mg/kg) was 4.7 mL/min/kg, the half-life (Pharmacokinetics in dogs; male, iv, 1 mg/kg) was 60.6 min and the AUC(0-t) (Pharmacokinetics in dogs; male, sc, 2.43 mg/kg) was 5.07 µM·h. For the same compound, the half-life (Pharmacokinetics in dogs; male, sc, 2.43 mg/kg) was 72.6 min, the aminopterin release [3] was “aminopterin release was observed” and the “magnitude of aminopterin release” value ([4]; 37° C.) was “lower than that from EC1669”. For the same compound, the “pH dependence of aminopterin release” value [4] was “highest at pH 4.5”, the “magnitude of aminopterin release” value ([5]; 37° C.) was “lower than that from EC1669” and the “pH dependence of aminopterin release” value [5] was “broad pH specificity”. For the same compound, the “magnitude of aminopterin release” value ([6]; 37° C.) was “lower than that from EC1669” and the “pH dependence of aminopterin release” value [6] was “highest at pH 4.5”.
